Reference: article PMC12823420

Key:
UAP56 = UAP56 (Homo sapiens, UniProt Q13838 1-428); test: GCI; 1 mM ATP; RNA immobilized; GCI: 25 mM HEPES pH 7.9, 50 mM KCl, 1 mM MgCl2, 1 mM TCEP, 1 mM ATP, 25 C; AdML pull-down: 20 mM HEPES pH 7.9, 100 mM KCl, 2 mM MgCl2, 5% glycerol, 0.1% Igepal, 1 mM AMP-PNP, RT; unclamping: same with 40 mM KCl, 500 mM KCl washes; conditions: protein: recombinant; otherwise unlabelled; single strand
UAP56-UCM-1 fusion = UAP56-UCM-1 fusion (Homo sapiens, UniProt Q13838 1-428+P82979:82-115, internal_change); test: as above; conditions: protein: recombinant; tags: 10xHis; otherwise unlabelled; single strand

Binder: UUUUUUUUUUUUUUU (ssRNA) [15U RNA]
- Kd (UAP56): 780 ± 90 nM
- Kd (UAP56-UCM-1 fusion): 270 ± 60 nM
